Sequences and labels used below:
B1: C10orf62 (parent)
chain: RALEEVEMKLQKNFLTQRENTIAG
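Further: lentivirally expressed fusions sorted by FACS into six bins by GFP to DsRed ratio, PSI derived from sequencing read proportions per bin multiplied by bin number.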

The data set covers variants of B1. Nature of the data set: protein stability index of a GFP-peptide fusion (GPS, HEK-293T) (PSI 1-6); higher = more stable. The note with it: c terminus: a fixed tail appended.
As for RALEEVEMKLQKNFLTQRSNTIAG, the protein stability index is 3.37.

Take RALEEVEMKLQKNFLTQRFNTIAG: the protein stability index was determined as 1.86. Then RALEEVEMKLQKNFLTQRQNTIAG, with 2.84; and RALEEVEMKLQKNFLTQRVNTIAG, with 2.3. Take RALEEVEMKLQKNFLTQRLNTIAG: the protein stability index worked out at 2.04.

For RALEEVEMKLQKNFLTQRTNTIAG, the protein stability index stood at 2.92. Under RALEEVEMKLQKNFLTQRYNTIAG stands 1.81; under RALEEVEMKLQKNFLTQRPNTIAG, 2.85; under RALEEVEMKLQKNFLTQRWNTIAG, 2.05. Under RALEEVEMKLQKNFLTQRMNTIAG stands 2.65; under RALEEVEMKLQKNFLTQRHNTIAG, 3.13. Under RALEEVEMKLQKNFLTQRANTIAG stands 3.82. On to RALEEVEMKLQKNFLTQRNNTIAG, for which the protein stability index turned out to be 3.2.

Consider RALEEVEMKLQKNFLTQRGNTIAG, for which the protein stability index is 3.31. Under RALEEVEMKLQKNFLTQRDNTIAG stands 3.78; under RALEEVEMKLQKNFLTQRCNTIAG, 2.33; under RALEEVEMKLQKNFLTQRINTIAG, 2.04.

On to RALEEVEMKLQKNFLTQRRNTIAG, for which the protein stability index stood at 3.12. Then RALEEVEMKLQKNFLTQRKNTIAG, with 3.53; and RALEEVEMKLQKNFLTQRENPIAG, with 3.7; and RALEEVEMKLQKNFLTQRENNIAG, with 3.61. Then RALEEVEMKLQKNFLTQRENLIAG, with 3.2. Then RALEEVEMKLQKNFLTQRENMIAG, with 3.27; and RALEEVEMKLQKNFLTQRENRIAG, with 3.2; and RALEEVEMKLQKNFLTQRENWIAG, with 2.93. Take RALEEVEMKLQKNFLTQRENKIAG: the protein stability index was determined as 3.51.

With RALEEVEMKLQKNFLTQRENCIAG, the protein stability index stood at 3.73. Under RALEEVEMKLQKNFLTQRENVIAG stands 3.36. On to RALEEVEMKLQKNFLTQRENSIAG, for which the protein stability index worked out at 4.06. Then RALEEVEMKLQKNFLTQRENQIAG, with 3.85; and RALEEVEMKLQKNFLTQRENDIAG, with 3.92; and RALEEVEMKLQKNFLTQRENHIAG, with 3.69. Then RALEEVEMKLQKNFLTQRENAIAG, with 3.56; and RALEEVEMKLQKNFLTQRENIIAG, with 3.34. Under RALEEVEMKLQKNFLTQRENFIAG stands 2.86; under RALEEVEMKLQKNFLTQRENGIAG, 3.23; under RALEEVEMKLQKNFLTQRENEIAG, 4.16.

In the case of RALEEVEMKLQKNFLTQRENYIAG, the protein stability index came to 2.69. Under RALEEVEMKLQKNFLTQREATIAG stands 3.24; under RALEEVEMKLQKNFLTQREDTIAG, 3.96. Then RALEEVEMKLQKNFLTQRERTIAG, with 3.29; and RALEEVEMKLQKNFLTQRESTIAG, with 3.7. As to RALEEVEMKLQKNFLTQREGTIAG, the protein stability index was found to be 3.6.

In the case of RALEEVEMKLQKNFLTQREQTIAG, the protein stability index was 3.81. Then RALEEVEMKLQKNFLTQREVTIAG, with 3.35; and RALEEVEMKLQKNFLTQREKTIAG, with 3.75. Then RALEEVEMKLQKNFLTQRETTIAG, with 3.7; and RALEEVEMKLQKNFLTQREWTIAG, with 2.03. Then RALEEVEMKLQKNFLTQREYTIAG, with 2.64; and RALEEVEMKLQKNFLTQRELTIAG, with 2.45; and RALEEVEMKLQKNFLTQRECTIAG, with 3.07. As to RALEEVEMKLQKNFLTQREMTIAG, the protein stability index was determined as 3.18.

Turning to RALEEVEMKLQKNFLTQREFTIAG, the protein stability index was 2.52.

Take RALEEVEMKLQKNFLTQREITIAG: the protein stability index was found to be 2.61.

Turning to RALEEVEMKLQKNFLTQREETIAG, the protein stability index is 4.17.

For the variant RALEEVEMKLQKNFLTQREHTIAG, the protein stability index was 2.85. Under RALEEVEMKLQKNFLTQREPTIAG stands 3.73; under RALEEVEMKLQKNFLTQLENTIAG, 2.08.

For RALEEVEMKLQKNFLTQHENTIAG, the protein stability index amounted to 3.96. Under RALEEVEMKLQKNFLTQKENTIAG stands 3.74; under RALEEVEMKLQKNFLTQCENTIAG, 2.91; under RALEEVEMKLQKNFLTQFENTIAG, 2.53. In the case of RALEEVEMKLQKNFLTQDENTIAG, the protein stability index is 4.59. In the case of RALEEVEMKLQKNFLTQSENTIAG, the protein stability index came to 4.18. RALEEVEMKLQKNFLTQIENTIAG: the protein stability index came out at 3.09. Under RALEEVEMKLQKNFLTQMENTIAG stands 3.12; under RALEEVEMKLQKNFLTQGENTIAG, 3.73; under RALEEVEMKLQKNFLTQVENTIAG, 2.35.

As to RALEEVEMKLQKNFLTQQENTIAG, the protein stability index stood at 3.85. For RALEEVEMKLQKNFLTQWENTIAG, the protein stability index stood at 2.47. Under RALEEVEMKLQKNFLTQAENTIAG stands 3.19; under RALEEVEMKLQKNFLTQNENTIAG, 4.05; under RALEEVEMKLQKNFLTQTENTIAG, 3.46. Under RALEEVEMKLQKNFLTQEENTIAG stands 4.29; under RALEEVEMKLQKNFLTQYENTIAG, 2.64. Under RALEEVEMKLQKNFLTQPENTIAG stands 3.72. RALEEVEMKLQKNFLTQRENTDAG: the protein stability index worked out at 4.11. With RALEEVEMKLQKNFLTQRENTAAG, the protein stability index is 4.15. Then RALEEVEMKLQKNFLTQRENTFAG, with 2.68. Then RALEEVEMKLQKNFLTQRENTLAG, with 3.21; and RALEEVEMKLQKNFLTQRENTEAG, with 4.75.

For the variant RALEEVEMKLQKNFLTQRENTCAG, the protein stability index was 3.92. Then RALEEVEMKLQKNFLTQRENTHAG, with 3.8.

On to RALEEVEMKLQKNFLTQRENTGAG, for which the protein stability index is 4.34. In the case of RALEEVEMKLQKNFLTPRENTIAG, the protein stability index stood at 3.69. Then RALEEVEMKLQKNFLTWRENTIAG, with 2.92; and RALEEVEMKLQKNFLTMRENTIAG, with 3.56.

RALEEVEMKLQKNFLTYRENTIAG: the protein stability index was 2.48. Under RALEEVEMKLQKNFLTTRENTIAG stands 3.2; under RALEEVEMKLQKNFLTRRENTIAG, 2.74. Under RALEEVEMKLQKNFLTLRENTIAG stands 3.03. Then RALEEVEMKLQKNFLTNRENTIAG, with 3.89. For the variant RALEEVEMKLQKNFLTVRENTIAG, the protein stability index is 3.06. Then RALEEVEMKLQKNFLTSRENTIAG, with 3.85.
